Source: paper PMC7353053, “Characterisation of the Effect of the Spatial Organisation of Hemicellulases on the Hydrolysis of Plant Biomass Polymer” (International Journal of Molecular Sciences, 2020)
One block for each molecule: values may come before it.

Legend:
[1] = molecular target: His-BhXyl43 (Bacillus halodurans C-125); assay: SAXS; proteins in 50 mM phosphate pH 7, around 10 mg/mL; direct injection and online SEC-HPLC curves merged; fit to the dimer of PDB 1YRZ or rigid body modelling; dimer to monomers
[2] = molecular target: His-In-NpXyn11A-BhXyl43-Jo (not stated | Neocallimastix patriciarum | Bacillus halodurans C-125); assay: as above
[3] = molecular target: His-In-NpXyn11A-Jo-BhXyl43 (not stated | Neocallimastix patriciarum | Bacillus halodurans C-125); assay: as above
purified protein = substrate: O=[N+]([O-])c1ccc(O[C@@H]2OC[C@@H](O)[C@H](O)[C@H]2O)cc1; assay: purified protein; type: biochemical, Halalkalibacterium halodurans; settings: 50 mM Tris-HCl pH 8, 1 mg/mL BSA, 45 °C, 10 min, 0.1 to 18 mM substrate

stoichiometry N [1]: 2
Molecule: His-BhXyl43 (enzyme)

stoichiometry N [2]: 2
Molecule: His-In-NpXyn11A-BhXyl43-Jo (complex)

stoichiometry N [3]: 2
Molecule: His-In-NpXyn11A-Jo-BhXyl43 (complex)

B1: His-Jo-BhXyl43 (Halalkalibacterium halodurans C-125) (protein)
chain: MVNRIQNPILPGFHPDPSIVRVGDDYYIATSTFEWFPGVRIHHSRDLKHWRFVSSPLTRTSQLDMKGNMNSGGIWAPCLSYHDGTFYLIYTDVKQWHGAFKDAHNYLVTAQNIEGPWSDPIYLNSSGFDPSLFHDDDGRKWLVNMIWDYRKGNHPFAGIILQEYSEAEQKLVGPVKNIYKGTDIQLTEGPHLYKKDGYYYLLVAEGGTEYEHAATLARSQSIDGPYETDPSYPLVTSTGQPELALQKAGHGSLVETQNGEWYLAHLCGRPLKGKYCTLGRETAIQKVNWTEDGWLRIEDGGNHPLREVTAPDLPEHPFEKEPELDDFDAPQLHHQWNTLRIPADPSWCSLEERPGHLRLRGMESLTSVHSQSLVARRQQSFHCEVETKLEYQPESFQHMAGLVIYYDTEDHVYLHVTWHEEKGKCLQIIQTKGGNYDELLASPIPLAEEKAVYLKGRIHRETMHLYFKQEGEAEWQPVGPTIDVTHMSDDSAKQVRFTGTFVGMATQDLSGTKKPADFDYFRYKELDQ
notes: N-terminal His6 tag and Jo module (about 10 kDa, isopeptide-forming fragment) fused to the N-terminus of BhXyl43 (63 kDa); expressed in E. coli BL21(DE3), IMAC purified
Km (purified protein): 6.01 ± 0.41 mM
kcat (purified protein): 18.1 ± 1.17 s⁻¹
kcat/Km (purified protein): 3015 ± 10.9 M⁻¹ s⁻¹
